Article PMC4605305, “TRAP150 interacts with the RNA-binding domain of PSF and antagonizes splicing of numerous PSF-target genes in T cells” (Nucleic Acids Research, 2015)

Legend:
hnRNP L = molecular target: T1, hnRNP L (UniProt P14866 1-589); experiment: UV crosslinking competition; GST-TRAP150 PID (686-755), no inhibition; UV crosslinking: 12 mM Tris pH 7.5, 120 mM NaCl, 3 mM MgCl2, 1 mM ATP, 20 mM phosphocreatine, 0.1 mM EDTA, 12% glycerol, 1.3% PVA, 25 ng/ul yeast tRNA, 20 ng/ul; details: protein: recombinant; tags: 6xHis; label: uniform 32P
T1 sequence: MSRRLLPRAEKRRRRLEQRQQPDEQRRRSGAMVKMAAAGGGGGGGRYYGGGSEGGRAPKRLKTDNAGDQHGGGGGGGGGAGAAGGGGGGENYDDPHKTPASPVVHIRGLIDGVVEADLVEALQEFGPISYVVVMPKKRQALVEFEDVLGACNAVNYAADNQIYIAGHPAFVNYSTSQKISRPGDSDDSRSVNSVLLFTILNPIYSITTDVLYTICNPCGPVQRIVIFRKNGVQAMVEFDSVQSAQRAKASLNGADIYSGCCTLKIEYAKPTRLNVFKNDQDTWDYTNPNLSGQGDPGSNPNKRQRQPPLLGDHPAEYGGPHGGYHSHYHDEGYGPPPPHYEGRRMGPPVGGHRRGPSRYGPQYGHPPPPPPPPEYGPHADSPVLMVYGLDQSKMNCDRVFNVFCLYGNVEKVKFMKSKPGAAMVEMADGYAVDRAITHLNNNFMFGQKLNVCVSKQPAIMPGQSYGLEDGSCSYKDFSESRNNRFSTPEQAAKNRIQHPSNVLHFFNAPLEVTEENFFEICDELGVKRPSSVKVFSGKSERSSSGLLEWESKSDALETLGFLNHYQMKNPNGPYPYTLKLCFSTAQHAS

PSF minRRMs = molecular target: T2, PSF minRRMs (human, UniProt P23246 299-449); experiment: as above; details: protein: recombinant; tags: 6xHis-FLAG N-term; label: uniform 32P
T2 sequence: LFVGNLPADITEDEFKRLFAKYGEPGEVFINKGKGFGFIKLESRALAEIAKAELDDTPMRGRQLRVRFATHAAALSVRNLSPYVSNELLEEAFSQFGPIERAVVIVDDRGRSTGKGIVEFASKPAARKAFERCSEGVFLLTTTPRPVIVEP

PSF exRRM2 = molecular target: T3, PSF exRRM2 (human, UniProt P23246 366-484); experiment: EMSA; affinity similar to exRRMs; UV crosslinking: 12 mM Tris pH 7.5, 120 mM NaCl, 3 mM MgCl2, 1 mM ATP, 20 mM phosphocreatine, 0.1 mM EDTA, 12% glycerol, 1.3% PVA, 25 ng/ul yeast tRNA, 20 ng/ul; details: protein: recombinant; tags: 6xHis-FLAG N-term; label: uniform 32P
T3 sequence: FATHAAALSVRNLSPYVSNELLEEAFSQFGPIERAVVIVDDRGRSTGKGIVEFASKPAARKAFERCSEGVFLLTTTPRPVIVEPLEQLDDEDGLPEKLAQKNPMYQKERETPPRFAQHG

PSF full-length (PSF-FL) = molecular target: T4, PSF full-length (PSF-FL) (human, UniProt P23246 1-707); experiment: UV crosslinking; higher affinity than exRRMs; UV crosslinking: 12 mM Tris pH 7.5, 120 mM NaCl, 3 mM MgCl2, 1 mM ATP, 20 mM phosphocreatine, 0.1 mM EDTA, 12% glycerol, 1.3% PVA, 25 ng/ul yeast tRNA, 20 ng/ul; details: protein: recombinant; tags: 6xHis-FLAG N-term; chain copies: 2; label: uniform 32P
T4 sequence: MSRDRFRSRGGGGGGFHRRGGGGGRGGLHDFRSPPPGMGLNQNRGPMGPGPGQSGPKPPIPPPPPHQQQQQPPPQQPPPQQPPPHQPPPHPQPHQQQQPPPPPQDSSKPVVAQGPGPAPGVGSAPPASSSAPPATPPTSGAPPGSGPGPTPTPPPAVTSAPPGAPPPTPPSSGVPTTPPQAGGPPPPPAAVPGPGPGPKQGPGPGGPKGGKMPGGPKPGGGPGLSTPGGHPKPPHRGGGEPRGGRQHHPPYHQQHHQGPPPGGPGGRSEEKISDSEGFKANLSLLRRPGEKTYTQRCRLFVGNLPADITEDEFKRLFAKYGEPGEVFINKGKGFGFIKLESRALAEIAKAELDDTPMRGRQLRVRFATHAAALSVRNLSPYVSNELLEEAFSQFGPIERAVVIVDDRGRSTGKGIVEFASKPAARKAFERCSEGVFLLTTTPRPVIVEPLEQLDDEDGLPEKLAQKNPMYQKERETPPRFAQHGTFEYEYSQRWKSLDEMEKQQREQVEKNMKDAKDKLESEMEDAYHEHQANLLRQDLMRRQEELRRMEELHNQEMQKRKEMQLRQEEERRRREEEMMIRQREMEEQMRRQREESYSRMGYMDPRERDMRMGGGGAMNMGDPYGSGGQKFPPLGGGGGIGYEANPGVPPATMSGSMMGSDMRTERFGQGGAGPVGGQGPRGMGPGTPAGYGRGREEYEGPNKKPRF

PSF exRRMs = molecular target: T5, PSF exRRMs (human, UniProt P23246 266-484); experiment: EMSA; UV crosslinking: 12 mM Tris pH 7.5, 120 mM NaCl, 3 mM MgCl2, 1 mM ATP, 20 mM phosphocreatine, 0.1 mM EDTA, 12% glycerol, 1.3% PVA, 25 ng/ul yeast tRNA, 20 ng/ul; details: protein: recombinant; tags: 6xHis-FLAG N-term; label: uniform 32P
T5 sequence: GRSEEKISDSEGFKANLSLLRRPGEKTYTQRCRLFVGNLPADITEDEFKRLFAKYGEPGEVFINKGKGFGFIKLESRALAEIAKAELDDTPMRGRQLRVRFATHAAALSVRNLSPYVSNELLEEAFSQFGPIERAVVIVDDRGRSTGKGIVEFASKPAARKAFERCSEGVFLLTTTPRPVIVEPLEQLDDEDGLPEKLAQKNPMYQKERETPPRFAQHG

GST-TRAP266–755 = molecular target: T6, GST-TRAP266–755 (UniProt Q9Y2W1 266-755); experiment: pull-down; 40 ug GST-tagged bait on glutathione sepharose 4B beads; prey incubated 1.5 h at 4°C in PBS; washes with PBS supplemented with 300 mM NaCl; western blot; details: both partners purified
T6 construct: source: E. coli Rosetta(DE3)pLysS, purified (glutathione sepharose, SEC); not shown: GST, N-terminal, kept
T6 sequence (looked up): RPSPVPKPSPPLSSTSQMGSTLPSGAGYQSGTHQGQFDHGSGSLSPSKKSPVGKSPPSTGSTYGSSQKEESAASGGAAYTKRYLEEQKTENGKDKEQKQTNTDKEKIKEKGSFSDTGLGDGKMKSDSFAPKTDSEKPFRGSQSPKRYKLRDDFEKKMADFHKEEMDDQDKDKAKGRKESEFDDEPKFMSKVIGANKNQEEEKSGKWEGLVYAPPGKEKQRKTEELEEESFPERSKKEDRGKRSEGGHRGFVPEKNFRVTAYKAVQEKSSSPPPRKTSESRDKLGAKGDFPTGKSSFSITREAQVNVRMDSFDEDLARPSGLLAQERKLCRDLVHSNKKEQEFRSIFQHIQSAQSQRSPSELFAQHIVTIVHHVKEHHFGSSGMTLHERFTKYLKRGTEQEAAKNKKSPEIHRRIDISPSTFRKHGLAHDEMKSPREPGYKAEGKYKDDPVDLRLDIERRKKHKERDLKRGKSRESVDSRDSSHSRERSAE

[1] = molecular target: T7, GST-TRAPΔN (TRAP150 266-955) (UniProt Q9Y2W1 266-955); experiment: as above; details: both partners purified
T7 construct: pGEX-6-P1; also called GST-TRAP150ΔN; TRAP150-ΔN; source: E. coli Rosetta(DE3)pLysS, purified (glutathione sepharose, SEC); not shown: GST, N-terminal, kept
T7 sequence (looked up): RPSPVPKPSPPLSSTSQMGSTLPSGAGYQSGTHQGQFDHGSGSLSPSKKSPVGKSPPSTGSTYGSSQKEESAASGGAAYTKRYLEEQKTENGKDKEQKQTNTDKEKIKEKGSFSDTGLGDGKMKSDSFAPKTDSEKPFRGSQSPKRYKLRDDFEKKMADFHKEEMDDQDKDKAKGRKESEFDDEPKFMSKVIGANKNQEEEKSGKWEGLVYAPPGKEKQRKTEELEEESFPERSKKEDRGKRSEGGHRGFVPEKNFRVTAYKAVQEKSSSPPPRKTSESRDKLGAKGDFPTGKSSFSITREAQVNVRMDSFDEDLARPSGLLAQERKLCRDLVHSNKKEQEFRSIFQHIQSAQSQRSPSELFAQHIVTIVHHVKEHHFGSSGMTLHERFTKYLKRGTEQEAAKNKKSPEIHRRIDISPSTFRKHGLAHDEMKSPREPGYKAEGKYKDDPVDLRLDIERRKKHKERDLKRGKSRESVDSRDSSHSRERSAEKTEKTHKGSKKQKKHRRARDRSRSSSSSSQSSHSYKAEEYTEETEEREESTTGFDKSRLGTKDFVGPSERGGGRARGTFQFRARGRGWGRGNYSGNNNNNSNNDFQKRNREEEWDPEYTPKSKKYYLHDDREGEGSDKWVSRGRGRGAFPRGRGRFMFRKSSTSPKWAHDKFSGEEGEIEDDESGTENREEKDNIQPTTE

Measured: binding result

B1: ESS1 (ssRNA)
RNA: ACGCGUCCACUUUCAAGUGACCCCUUACCUACUCACACCACUGCAUUCUCACCCGCAAGCACCUUUGACGCGU
binds: hnRNP L | PSF minRRMs | PSF exRRM2 | PSF full-length (PSF-FL) | PSF exRRMs

B2: HisFLAG-PSF exRRMs (266-484) (domain or fragment, UniProt P23246 266-484, looked up)
chain: GRSEEKISDSEGFKANLSLLRRPGEKTYTQRCRLFVGNLPADITEDEFKRLFAKYGEPGEVFINKGKGFGFIKLESRALAEIAKAELDDTPMRGRQLRVRFATHAAALSVRNLSPYVSNELLEEAFSQFGPIERAVVIVDDRGRSTGKGIVEFASKPAARKAFERCSEGVFLLTTTPRPVIVEPLEQLDDEDGLPEKLAQKNPMYQKERETPPRFAQHG
notes: also called HisFLAG-exRRMs; HFexRRM1+2; source: E. coli Rosetta(DE3)pLysS, purified (Ni-NTA, SEC); not shown: His6, N-terminal, kept; FLAG, N-terminal, kept
binds: GST-TRAP266–755 | [1]
